# Assay results: patent US5849890, “High affinity oligonucleotide ligands to chorionic gonadotropin hormone and related glycoprotein hormones” (NeXstar Pharmaceuticals, Inc.)
# B1: H-30 (ssRNA)
# RNA: GGGAGGACGAUGCGGUACUGUAAAACAAUCUGGAGGAGGGUCUAGGGGAUGGUGGCAGACGACUCGCCCGA
# modifications: 2'-NH2 all pyrimidines
# B2: ligand 25/9 dimer (ssRNA)
# RNA: GGGAGACAAGAAUAAACGCUCAACAGUGAUUGAACGAUCCUUUCAGCUGGUGGGUAUGGUCCCGGAGUCUCGUUGGUCGUUGAACGAUCCUUCGACAGGAGGCUCA
# modifications: 2'-F all pyrimidines
# B3: 2nd generation ligand 8 (ssRNA)
# RNA: GGGAGGACGAUGCGGUUCGAUUCCAAGUUGAACGAUCCUCCUUUUGAUUAGACCAGACGACUCGCCCGA
# modifications: 2'-F all pyrimidines
# B4: 2nd generation ligand 84 (ssRNA)
# RNA: GGGAGGACGAUGCGGUUGGUUAUCCAUGUUGAACGUUCCUUCAUGUCGAAUAUGCAGACGACUCGCCCGA
# modifications: 2'-F all pyrimidines
# B5: H-25 (ssRNA)
# RNA: GGGAGGACGAUGCGGAAAGGAGGAGGCUGGGUGCGUCAAGAGUUCUCCCGAGCGCCAGACGACUCGCCCGA
# modifications: 2'-NH2 all pyrimidines
# B6: H-42 (ssRNA)
# RNA: GGGAGGACGAUGCGGACAAGGGCCUGAGUGUGGAGGGCACGUGGAGGGGACUGGCCAGACGACUCGCCCGA
# modifications: 2'-NH2 all pyrimidines
# B7: 2nd generation ligand 95 (ssRNA)
# RNA: GGGAGGACGAUGCGGGUUUUCCUACUAGUUGAAUGAUCCUUCUAGUUAGAUGCCAGACGACUCGCCCGA
# modifications: 2'-F all pyrimidines
# B8: T-15 (ssRNA)
# RNA: GGGAGGACGAUGCGGAUGUUGGCAGCAGGGUCCGACGGCGUAACCUUGCCAGCUGCAGACGACUCGCCCGA
# modifications: 2'-NH2 all pyrimidines
# B9: 2nd generation ligand 18 (ssRNA)
# RNA: GGGAGGACGAUGCGGCAUUCGCUGAUUCUUGAACGAUCCUUGAUGAUGUGGAUGCAGACGACUCGCCCGA
# modifications: 2'-F all pyrimidines
# B10: H-17 (ssRNA)
# RNA: GGGAGGACGAUGCGGAGGGAACGCGGAGGGGUGUGUCCCCCAGACUACAAGGCGGCAGACGACUCGCCCGA
# modifications: 2'-NH2 all pyrimidines
# B11: 2nd generation ligand 76 (ssRNA)
# RNA: GGGAGGACGAUGCGGACCGACUAAAUGAUUGAACGAUCCUUAUUGUCUCUAUCACAGACGACUCGCCCGA
# modifications: 2'-F all pyrimidines
# B12: 2nd generation ligand 59 (ssRNA)
# RNA: GGGAGGACGAUGCGGUAACUCUUAAUUCUUGAACAAUCCUUGAAUUUAGCGGACCAGACGACUCGCCCGA
# modifications: 2'-F all pyrimidines
# B13: 2nd generation ligand 7 (ssRNA)
# RNA: GGGAGGACGAUGCGGAUGAGCUUGAUAAUGGAACGAUCCUUUUAACGGUUCUUCCAGACGACUCGCCCGA
# modifications: 2'-F all pyrimidines
# B14: 2nd generation ligand 77 (ssRNA)
# RNA: GGGAGGACGAUGCGGCAGUGUCAACAUCUUGAACGAUCCUUUUUUUCAGCGCGUCAGACGACUCGCCCGA
# modifications: 2'-F all pyrimidines
# B15: 2nd generation ligand 37 (ssRNA)
# RNA: GGGAGGACGAUGCGGAAUUCCCCCAAGAUUGAACGGUCCUUUCUCGCAGAUGUUCAGACGACUCGCCCGA
# modifications: 2'-F all pyrimidines
# B16: 2nd generation ligand 82 (ssRNA)
# RNA: GGGAGGACGAUGCGGUAACAGUCGAUUCUUGAACGAUCCUUUCCACUUCAACCGCAGACGACUCGCCCGA
# modifications: 2'-F all pyrimidines
# Legend:
# [1] = molecular target: T1, human chorionic gonadotropin (hCG) heterodimer (Homo sapiens, UniProt P01215;P0DN86 P01215:25-116,P0DN86:21-165); test: filter; TEM or TESM, 2.1 mM Mg, pH 6.5, 37 C; settings: tags: Calbiochem or Vitro Diagnostics (14,000 IU/mg); chain copies: alpha/beta heterodimer (stated); label: 32P; G4 (RNase T1 protection in K+)
# T1 sequence (P01215 25-116, chain 1 of 2, other chains not shown): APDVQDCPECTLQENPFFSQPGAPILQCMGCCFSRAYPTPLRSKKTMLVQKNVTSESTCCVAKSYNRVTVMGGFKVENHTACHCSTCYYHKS
# Method: (§1) Internally-labeled RNA transcripts were prepared by including [α-^32P]ATP in T7 RNA polymerase transcription reactions. Full-length transcripts were purified on 8% denaturing polyacrylamide gels to ensure size homogeneity. Gel-purified RNA was diluted to a concentration of ~5 nM in TEM buffer, heated to 80° C. then chilled on ice to facilitate secondary structure formation. RNA concentrations were kept lower than 100 pM in binding reactions. Briefly, equal amounts of RNA were incubated with varying amounts of hormone in 50 μL of TEM buffer for 10 minutes at 37° C. RNA-protein mixtures were passed through pre-wet nitrocellulose filters (0.2μ), and the filters were immediately washed with 5 mL of binding buffer. Radioactivity retained on filters was determined by liquid scintillation counting. The quantities of RNA bound to filters in the absence of protein was determined and used for background correction. The percentage of input RNA retained on each filter was plotted against the corresponding log protein concentration. The nonlinear least square method was used to obtain the dissociation constant (K_d) (Jellinek et al. (1993) Proc. Natl. Acad. Sci. U.S.A. 90:11227–11231; Irvine et al. (1991) J. Mol. Biol. 222:739–761).
# (§2) By incorporating a counterselection step, SELEX allowed the isolation of hCG-specific RNA ligands (Example 5, infra).
# [2] = molecular target: T2, human thyroid stimulating hormone (hTSH) (Homo sapiens, UniProt P01215;P01222 P01215:25-116,P01222:21-132); test: filter; Mg, pH 6.5; settings: tags: Becton Dickinson; chain copies: alpha/beta heterodimer (inferred); label: 32P; G4 (RNase T1 protection in K+)
# T2 sequence (P01215 25-116, chain 1 of 2): as the sequence (P01215 25-116, chain 1 of 2, other chains not shown) above
# T2 sequence (P01222 21-132, chain 2 of 2): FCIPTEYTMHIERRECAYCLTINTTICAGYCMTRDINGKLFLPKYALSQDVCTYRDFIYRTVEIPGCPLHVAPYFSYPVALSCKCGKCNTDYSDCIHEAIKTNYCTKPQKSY
# Method: as §1, §2
# [3] = molecular target: T3, human luteinizing hormone (hLH) (Homo sapiens, UniProt P01215;P01229 P01215:25-116,P01229:21-141); test: filter; Mg, pH 6.5; settings: tags: Becton Dickinson (2'-NH2 work); Scripps/Vitro Diagnostics (2'-F work); chain copies: alpha/beta heterodimer (inferred); label: 32P; G4 (RNase T1 protection in K+)
# T3 sequence (P01215 25-116, chain 1 of 2): as the sequence (P01215 25-116, chain 1 of 2, other chains not shown) above
# T3 sequence (P01229 21-141, chain 2 of 2): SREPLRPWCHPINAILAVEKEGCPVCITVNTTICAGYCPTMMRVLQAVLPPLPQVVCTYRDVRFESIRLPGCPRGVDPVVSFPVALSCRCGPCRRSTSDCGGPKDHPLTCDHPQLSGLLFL
# Method: as §1, §2
# [4] = molecular target: T4, human follicle stimulating hormone (hFSH) (Homo sapiens, UniProt P01215;P01225 P01215:25-116,P01225:19-129); test: filter; Mg, pH 6.5; settings: tags: Becton Dickinson; chain copies: alpha/beta heterodimer (inferred); label: 32P; G4 (RNase T1 protection in K+)
# T4 sequence (P01215 25-116, chain 1 of 2): as the sequence (P01215 25-116, chain 1 of 2, other chains not shown) above
# T4 sequence (P01225 19-129, chain 2 of 2): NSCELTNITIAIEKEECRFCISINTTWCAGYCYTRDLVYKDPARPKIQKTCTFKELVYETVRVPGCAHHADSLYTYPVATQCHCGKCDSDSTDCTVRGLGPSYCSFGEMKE
# Method: as §1, §2
# [5] = molecular target: T1, human chorionic gonadotropin (hCG) …; test: filter; settings: tags: Calbiochem or Vitro Diagnostics (14,000 IU/mg); chain copies: alpha/beta heterodimer (stated); label: 32P; two hairpins
# [6] = molecular target: T1, human chorionic gonadotropin (hCG) …; test: filter; conserved region mutated; settings: tags: Calbiochem or Vitro Diagnostics (14,000 IU/mg); chain copies: alpha/beta heterodimer (stated); label: 32P
# Text: (§3) PCR products generated from the RNA population isolated after six cycles of selection were cloned into pUC18 and 43 clones were sequenced (Table 13). As with the high affinity ligands selected in the first SELEX experiment in this example, 37 of the sequenced ligands are capable of assuming a stem-loop structure which places the conserved, unselected, 13-nt sequence in the "loop" structure.
# [7] = molecular target: T3, human luteinizing hormone (hLH); test: filter; settings: tags: Becton Dickinson (2'-NH2 work); Scripps/Vitro Diagnostics (2'-F work); chain copies: alpha/beta heterodimer (inferred); label: 32P; G4 (RNase T1 protection in K+)
# Method: as §1, §2
# [8] = molecular target: T1, human chorionic gonadotropin (hCG) …; test: filter; 5.8 +/- 2.8 nM in Table 5; settings: tags: Calbiochem or Vitro Diagnostics (14,000 IU/mg); chain copies: alpha/beta heterodimer (stated); label: 32P; G4 (RNase T1 protection in K+)
# [9] = molecular target: glycoprotein hormone common alpha-subunit (UniProt P01215 P01215:25-116); test: filter; settings: tags: UCB-bioproducts; label: 32P
# Chain of glycoprotein hormone common alpha-subunit (P01215 25-116, one chain of several): as the sequence (P01215 25-116, chain 1 of 2, other chains not shown) above
# Method: as §1, §2
# [10] = molecular target: hCG beta-subunit (Homo sapiens, UniProt P0DN86 P0DN86:21-165); test: filter; settings: tags: Calbiochem or Vitro Diagnostics; label: 32P
# Method: as §1, §2
# [11] = molecular target: T3, human luteinizing hormone (hLH); test: filter; Mg, pH 6.5; <2-fold change at pH 7.0; settings: tags: Becton Dickinson (2'-NH2 work); Scripps/Vitro Diagnostics (2'-F work); chain copies: alpha/beta heterodimer (inferred); label: 32P
# [12] = molecular target: T1, human chorionic gonadotropin (hCG) …; test: filter; Mg, pH 6.5; Kd rises >25-fold at pH 7.0; settings: tags: Calbiochem or Vitro Diagnostics (14,000 IU/mg); chain copies: alpha/beta heterodimer (stated); label: 32P
# [13] = molecular target: T1, human chorionic gonadotropin (hCG) …; test: filter; in urine; settings: tags: Calbiochem or Vitro Diagnostics (14,000 IU/mg); chain copies: alpha/beta heterodimer (stated); label: 32P; hairpin
# [14] = molecular target: T1, human chorionic gonadotropin (hCG) …; test: filter; SBB buffer; settings: tags: Calbiochem or Vitro Diagnostics (14,000 IU/mg); chain copies: alpha/beta heterodimer (stated); label: 32P; hairpin
# [15] = molecular target: T4, human follicle stimulating hormone …; test: filter; settings: tags: Becton Dickinson; chain copies: alpha/beta heterodimer (inferred); label: 32P; possible hairpin; no G4 by RNase T1
# [16] = molecular target: T2, human thyroid stimulating hormone (hTSH); test: filter; not pH sensitive, pH 5.8-7.2; settings: tags: Becton Dickinson; chain copies: alpha/beta heterodimer (inferred); label: 32P; possible hairpin; no G4 by RNase T1
# [17] = molecular target: T1, human chorionic gonadotropin (hCG) …; test: filter; 17.2% bound at 100 nM; settings: tags: Calbiochem or Vitro Diagnostics (14,000 IU/mg); chain copies: alpha/beta heterodimer (stated); label: 32P; hairpin
# [18] = molecular target: T1, human chorionic gonadotropin (hCG) …; test: filter; +/- 3 nM (Table 5); settings: tags: Calbiochem or Vitro Diagnostics (14,000 IU/mg); chain copies: alpha/beta heterodimer (stated); label: 32P; G4 (RNase T1 protection in K+)
# [19] = molecular target: T1, human chorionic gonadotropin (hCG) …; test: filter; no significant stem; settings: tags: Calbiochem or Vitro Diagnostics (14,000 IU/mg); chain copies: alpha/beta heterodimer (stated); label: 32P
# Text: as §3
# [20] = molecular target: T1, human chorionic gonadotropin (hCG) …; test: filter; +/- 13 nM; settings: tags: Calbiochem or Vitro Diagnostics (14,000 IU/mg); chain copies: alpha/beta heterodimer (stated); label: 32P; intramolecular G4
# Method: as §1
# [21] = molecular target: T1, human chorionic gonadotropin (hCG) …; test: filter; +/- 9 nM; settings: tags: Calbiochem or Vitro Diagnostics (14,000 IU/mg); chain copies: alpha/beta heterodimer (stated); label: 32P; intramolecular G4
# Method: as §1
binder,measurement,setting,value
B1,Kd,[1],20 nM
same,Kd,[2],~1600 nM
same,Kd,[3],51 nM
same,Kd,[4],~1700 nM
B2,Kd,[5],~200 nM
B3,binding signal,[6],0.73 % bound at 100 nM
B4,binding signal,[6],0.24 % bound at 100 nM
B5,Kd,[7],17.5 nM
same,Kd,[8],6 nM
B6,Kd,[9],~1400 nM
same,Kd,[10],~200 nM
same,Kd,[11],15 nM
same,Kd,[12],6.2 nM
"GGGAGUCUCGUUGGUCGUUGAACGAUCCUUCGACAGGAGGCUCA (ssRNA, 2'-F all pyrimidines) [hCG ligand 9TR1]",Kd,[13],100 nM
same,Kd,[14],200 nM
B7,binding signal,[6],1.57 % bound at 100 nM
B8,Kd,[15],~200 nM
same,Kd,[16],14 nM
B9,Kd,[17],150 nM
B10,Kd,[18],7.5 nM
B11,binding signal,[19],0.2 % bound at 100 nM
"GGAGGACGAUGCGGAGGGAACGCGGAGGGGUG (ssRNA, 2'-NH2 all pyrimidines) [delta17]",Kd,[20],25 nM
B12,binding signal,[6],1.88 % bound at 100 nM
B13,binding signal,[6],0 % bound at 100 nM
B14,binding signal,[19],0.42 % bound at 100 nM
B15,binding signal,[6],0 % bound at 100 nM
B16,binding signal,[19],0 % bound at 100 nM
"GGAGGACGAUGCGGAAAGGAGGAGGCUGGGUGCGUC (ssRNA, 2'-NH2 all pyrimidines) [delta25]",Kd,[21],24 nM
